Data reported in patent US20240360194A1, “New Peptides as Potent and Selective GIP Receptor Agonists” (Sanofi, priority 2021, published 2024).
Numbered stars: 1 amine (or outer) side, 2 acyl side, 3 side chain; on linkers, the order of the positions; unused ones are H or OH. Square brackets hold non-standard residues; d marks the D form. Side chains are listed from the residue outwards. Ends that are not written are not given here. * marks the point of attachment. C18 diacid = O=C(O)CCCCCCCCCCCCCCCCC(=O)*; γGlu = O=C(O)[C@H](CCC(=O)[*:2])N[*:1]; Iva = CC[C@](C)(N)C(=O)O; AEEA = NCCOCCOCC(=O)O; Aib = CC(C)(N)C(=O)O

T1: human GIP receptor (human, UniProt P48546 22-466)
T1 sequence (looked up): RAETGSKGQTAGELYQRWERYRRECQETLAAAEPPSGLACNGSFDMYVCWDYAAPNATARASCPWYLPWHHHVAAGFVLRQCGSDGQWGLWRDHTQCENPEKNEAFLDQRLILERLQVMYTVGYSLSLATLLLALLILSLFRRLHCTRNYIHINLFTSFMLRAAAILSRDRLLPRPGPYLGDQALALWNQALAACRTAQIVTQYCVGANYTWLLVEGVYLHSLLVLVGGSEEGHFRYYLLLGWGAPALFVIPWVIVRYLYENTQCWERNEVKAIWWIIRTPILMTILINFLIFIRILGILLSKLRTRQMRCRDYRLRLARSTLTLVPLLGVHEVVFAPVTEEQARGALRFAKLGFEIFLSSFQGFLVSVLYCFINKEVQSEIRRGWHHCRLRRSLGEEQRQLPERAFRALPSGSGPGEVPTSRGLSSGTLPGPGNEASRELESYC


Experiments:
human GIP receptor [1] = molecular target: T1, human GIP receptor; test: cell-based or functional assay
human GIP receptor [2] = molecular target: T1, human GIP receptor; test: cell-based or functional assay; remark: listed apart in the source
human GLP-1 receptor [3] = molecular target: T2, human GLP-1 receptor (human, UniProt P43220 24-463); test: cell-based or functional assay
human GIP receptor [4] = molecular target: T1, human GIP receptor; test: displacement of [125I]GIP from HEK-293 membranes expressing hGIPR (SPA beads)
human GLP-1 receptor [5] = molecular target: T2, human GLP-1 receptor; test: displacement of [125I]GLP-1 from HEK-293 membranes expressing hGLP-1R (SPA beads)

Binder | hGIPR EC50 (cAMP, human adipocytes) (human GIP receptor [1]) | hGIPR Emax (cAMP, human adipocytes) (human GIP receptor [1]) | EC50 hGIPR 0% HSA (cAMP, HEK-293) (human GIP receptor [2]) | EC50 hGIPR 0.1% BSA (cAMP, HEK-293) (human GIP receptor [2]) | EC50 hGIPR 0.1% HSA (cAMP, HEK-293) (human GIP receptor [2]) | EC50 hGLP-1R 0.1% BSA (cAMP, HEK-293) (human GLP-1 receptor [3]) | IC50 (human GIP receptor [4]) | IC50 (human GLP-1 receptor [5])
Y[Aib]EGTFISDLSI[Aib]K([AEEA-AEEA-γGlu-C18 diacid])EEIHQ[Aib]EFIEWLLAQGPSSGAPPPS-NH2 (N-terminus assumed; SMILES CC[C@H](C)[C@H](NC(=O)[C@H](CCC(=O)O)NC(=O)[C@H](CCC(=O)O)NC(=O)[C@H](CCCCNC(=O)COCCOCCNC(=O)COCCOCCNC(=O)CC[C@H](NC(=O)CCCCCCCCCCCCCCCCC(=O)O)C(=O)O)NC(=O)C(C)(C)NC(=O)[C@@H](NC(=O)[C@H](CO)NC(=O)[C@H](CC(C)C)NC(=O)[C@H](CC(=O)O)NC(=O)[C@H](CO)NC(=O)[C@@H](NC(=O)[C@H](Cc1ccccc1)NC(=O)[C@@H](NC(=O)CNC(=O)[C@H](CCC(=O)O)NC(=O)C(C)(C)NC(=O)[C@@H](N)Cc1ccc(O)cc1)[C@@H](C)O)[C@@H](C)CC)[C@@H](C)CC)C(=O)N[C@@H](Cc1c[nH]cn1)C(=O)N[C@@H](CCC(N)=O)C(=O)NC(C)(C)C(=O)N[C@@H](CCC(=O)O)C(=O)N[C@@H](Cc1ccccc1)C(=O)N[C@H](C(=O)N[C@@H](CCC(=O)O)C(=O)N[C@@H](Cc1c[nH]c2ccccc12)C(=O)N[C@@H](CC(C)C)C(=O)N[C@@H](CC(C)C)C(=O)N[C@@H](C)C(=O)N[C@@H](CCC(N)=O)C(=O)NCC(=O)N1CCC[C@H]1C(=O)N[C@@H](CO)C(=O)N[C@@H](CO)C(=O)NCC(=O)N[C@@H](C)C(=O)N1CCC[C@H]1C(=O)N1CCC[C@H]1C(=O)N1CCC[C@H]1C(=O)N[C@@H](CO)C(N)=O)[C@@H](C)CC, Synthetic peptide, 39 residues) [SEQ ID NO: 19] | 8 nM | 94% | 0.0002 nM | 0.0378 nM | 0.0015 nM | > 10 nM | 2 nM | 
H-Y[Aib]EGT[Iva]ISDLSI[Aib]K([AEEA-AEEA-γGlu-C18 diacid])DRIHQEEFIEWLLAQGPSSGAPPPS-NH2 (Synthetic peptide, 39 residues) [SEQ ID NO: 24] | 0.2 nM | 100% | 0.00056 nM | 0.0366 nM |  | > 10 nM | 0.1 nM | 188 nM
